Here are results for 2 molecules from paper PMC9932102, “SVEP1 is an endogenous ligand for the orphan receptor PEAR1” (Nature Communications, 2023).

The experiment addresses T1, biotinylated SVEP1 (mouse, UniProt A2AVA0 18-3567, biotin on the biotinylation domain (by BirA)).
T1 construct: SVEP1, mouse Svep1 cDNA; biotinylation domain inserted in the C-terminus region upstream of the Myc tag; Same Svep1 construct as m1 with the biotinylation domain added; source: 293F cells, co-transfected with secreted BirA and supplemented with biotin, purified (Nuvia IMAC, Superose 6)
The experiment is described as follows: BLI; biotinylated SVEP1 loaded on Octet SA biosensors (20 min, about 0.7 nm shift), quenched with biocytin; PEAR1 or PEAR1 D343N 10-90 nM as analyte; 0.01% Tween 20 in calcium-containing DPBS; 15 min association, 15 min dissociation; global 1:1 fit. To be noted: both partners purified. (In general: Biolayer interferometry detects binding as a change in optical thickness at a sensor tip.)

T1 sequence (A2AVA0 18-3567): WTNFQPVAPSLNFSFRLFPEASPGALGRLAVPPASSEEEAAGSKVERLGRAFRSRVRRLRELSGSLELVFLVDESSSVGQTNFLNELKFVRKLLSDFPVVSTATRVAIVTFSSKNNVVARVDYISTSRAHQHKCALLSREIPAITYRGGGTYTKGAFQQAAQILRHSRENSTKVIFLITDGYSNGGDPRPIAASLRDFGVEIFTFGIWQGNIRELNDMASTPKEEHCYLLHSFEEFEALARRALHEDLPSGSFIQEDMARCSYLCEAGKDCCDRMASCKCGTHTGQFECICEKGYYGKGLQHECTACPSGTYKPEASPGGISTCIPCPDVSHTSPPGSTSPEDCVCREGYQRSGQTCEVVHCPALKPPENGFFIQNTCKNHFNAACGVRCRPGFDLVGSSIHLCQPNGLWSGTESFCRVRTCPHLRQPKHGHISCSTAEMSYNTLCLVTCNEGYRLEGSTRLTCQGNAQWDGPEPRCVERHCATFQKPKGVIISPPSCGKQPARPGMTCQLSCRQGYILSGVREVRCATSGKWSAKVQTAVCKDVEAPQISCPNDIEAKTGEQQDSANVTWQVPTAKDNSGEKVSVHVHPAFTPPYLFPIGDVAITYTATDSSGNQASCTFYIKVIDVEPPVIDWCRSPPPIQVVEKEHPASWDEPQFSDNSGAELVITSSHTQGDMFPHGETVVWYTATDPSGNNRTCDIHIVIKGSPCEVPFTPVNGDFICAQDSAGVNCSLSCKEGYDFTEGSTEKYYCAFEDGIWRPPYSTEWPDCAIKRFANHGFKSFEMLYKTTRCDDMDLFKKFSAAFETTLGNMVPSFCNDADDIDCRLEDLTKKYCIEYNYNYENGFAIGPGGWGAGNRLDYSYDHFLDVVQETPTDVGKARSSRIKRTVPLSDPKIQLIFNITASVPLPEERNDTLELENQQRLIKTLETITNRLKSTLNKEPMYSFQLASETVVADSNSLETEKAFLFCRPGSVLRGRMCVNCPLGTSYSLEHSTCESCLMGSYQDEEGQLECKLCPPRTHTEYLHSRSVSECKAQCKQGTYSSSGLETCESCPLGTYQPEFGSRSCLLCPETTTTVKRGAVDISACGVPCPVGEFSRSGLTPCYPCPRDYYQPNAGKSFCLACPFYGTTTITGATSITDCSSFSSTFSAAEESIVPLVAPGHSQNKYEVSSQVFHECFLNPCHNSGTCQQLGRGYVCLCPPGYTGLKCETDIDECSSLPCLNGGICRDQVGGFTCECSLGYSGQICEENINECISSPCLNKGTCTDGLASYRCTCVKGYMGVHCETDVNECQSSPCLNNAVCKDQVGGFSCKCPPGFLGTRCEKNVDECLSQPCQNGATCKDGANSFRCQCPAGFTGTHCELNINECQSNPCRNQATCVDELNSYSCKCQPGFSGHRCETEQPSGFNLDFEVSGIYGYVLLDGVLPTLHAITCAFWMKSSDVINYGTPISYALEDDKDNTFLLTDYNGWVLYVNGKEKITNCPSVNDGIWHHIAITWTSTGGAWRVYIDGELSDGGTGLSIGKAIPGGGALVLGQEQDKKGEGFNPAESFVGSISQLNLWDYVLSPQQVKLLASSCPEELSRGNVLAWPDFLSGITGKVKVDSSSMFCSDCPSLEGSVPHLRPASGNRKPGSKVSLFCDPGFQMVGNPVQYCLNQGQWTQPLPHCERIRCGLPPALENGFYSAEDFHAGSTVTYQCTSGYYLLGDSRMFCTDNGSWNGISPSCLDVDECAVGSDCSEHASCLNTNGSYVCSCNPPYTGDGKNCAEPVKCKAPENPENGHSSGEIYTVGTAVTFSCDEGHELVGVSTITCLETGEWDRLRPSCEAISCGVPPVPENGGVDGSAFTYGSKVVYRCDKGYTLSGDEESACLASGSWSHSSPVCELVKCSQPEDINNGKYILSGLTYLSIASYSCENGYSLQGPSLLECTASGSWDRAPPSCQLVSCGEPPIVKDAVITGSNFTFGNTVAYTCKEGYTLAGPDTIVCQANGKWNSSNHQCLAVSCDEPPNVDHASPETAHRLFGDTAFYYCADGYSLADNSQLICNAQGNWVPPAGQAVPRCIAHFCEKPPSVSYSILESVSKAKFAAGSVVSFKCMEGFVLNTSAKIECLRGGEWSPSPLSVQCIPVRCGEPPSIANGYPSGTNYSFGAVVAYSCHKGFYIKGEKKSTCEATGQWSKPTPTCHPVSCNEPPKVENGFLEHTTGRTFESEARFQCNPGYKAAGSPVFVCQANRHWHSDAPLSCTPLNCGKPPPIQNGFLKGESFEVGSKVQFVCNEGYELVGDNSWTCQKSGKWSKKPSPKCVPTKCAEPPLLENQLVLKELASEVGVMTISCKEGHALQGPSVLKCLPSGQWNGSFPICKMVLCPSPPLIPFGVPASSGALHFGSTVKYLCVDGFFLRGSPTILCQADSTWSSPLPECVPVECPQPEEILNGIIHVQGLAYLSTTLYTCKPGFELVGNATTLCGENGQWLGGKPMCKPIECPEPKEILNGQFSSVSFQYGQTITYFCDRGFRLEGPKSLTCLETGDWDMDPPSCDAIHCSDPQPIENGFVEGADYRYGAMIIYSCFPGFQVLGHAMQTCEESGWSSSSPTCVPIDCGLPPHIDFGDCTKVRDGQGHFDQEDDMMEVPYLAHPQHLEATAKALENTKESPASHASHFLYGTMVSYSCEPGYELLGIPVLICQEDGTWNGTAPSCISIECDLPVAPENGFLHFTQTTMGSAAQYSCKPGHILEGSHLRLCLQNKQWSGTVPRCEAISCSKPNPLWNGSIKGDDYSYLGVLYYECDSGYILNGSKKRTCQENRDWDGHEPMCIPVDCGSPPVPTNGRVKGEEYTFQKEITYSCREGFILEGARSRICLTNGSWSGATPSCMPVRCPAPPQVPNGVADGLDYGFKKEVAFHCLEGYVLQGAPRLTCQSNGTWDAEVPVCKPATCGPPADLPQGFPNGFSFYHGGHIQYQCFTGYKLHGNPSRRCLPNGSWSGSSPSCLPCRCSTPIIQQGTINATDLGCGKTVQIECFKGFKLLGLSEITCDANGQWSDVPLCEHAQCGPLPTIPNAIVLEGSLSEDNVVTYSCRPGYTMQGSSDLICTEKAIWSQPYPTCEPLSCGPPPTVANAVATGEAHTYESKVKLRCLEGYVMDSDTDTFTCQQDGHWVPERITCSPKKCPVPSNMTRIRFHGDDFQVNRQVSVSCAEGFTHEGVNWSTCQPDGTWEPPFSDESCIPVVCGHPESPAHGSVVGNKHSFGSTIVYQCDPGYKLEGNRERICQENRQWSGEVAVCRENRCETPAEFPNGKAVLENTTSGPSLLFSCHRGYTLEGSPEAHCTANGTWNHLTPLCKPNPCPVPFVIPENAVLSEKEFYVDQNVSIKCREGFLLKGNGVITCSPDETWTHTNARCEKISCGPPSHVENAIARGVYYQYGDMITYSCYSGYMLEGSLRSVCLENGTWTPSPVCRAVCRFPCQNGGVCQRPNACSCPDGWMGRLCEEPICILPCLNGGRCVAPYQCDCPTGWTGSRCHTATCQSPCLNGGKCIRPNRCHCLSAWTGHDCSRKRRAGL

B1: PEAR1 (analyte of the BLI on biotinylated SVEP1) (receptor)
chain: LNPSDPNTCSFWESFTTTTKESHSRPFSLLPSEPCERPWEGPHTCPQPTVVYRTVYRQVVKTDHRQRLQCCHGFYESRGFCVPLCAQECVHGRCVAPNQCQCVPGWRGDDCSSECAPGMWGPQCDKPCSCGNNSSCDPKSGVCSCPSGLQPPNCLQPCTPGYYGPACQFRCQCHGAPCDPQTGACFCPAERTGPSCDVSCSQGTSGFFCPSTHSCQNGGVFQTPQGSCSCPPGWMGTICSLPCPEGFHGPNCSQECRCHNGGLCDRFTGQCRCAPGYTGDRCREECPVGRFGQDCAETCDCAPDARCFPANGACLCEHGFTGDRCTDRLCPDGFYGLSCQAPCTCDREHSLSCHPMNGECSCLPGWAGLHCNESCPQDTHGPGCQEHCLCLHGGVCQATSGLCQCAPGYTGPHCASLCPPDTYGVNCSARCSCENAIACSPIDGECVCKEGWQRGNCSVPCPPGTWGFSCNASCQCAHEAVCSPQTGACTCTPGWHGAHCQLPCPKGQFGEGCASRCDCDHSDGCDPVHGRCQCQAGWMGARCHLSCPEGLWGVNCSNTCTCKNGGTCLPENGNCVCAPGFRGPSCQRSCQPGRYGKRCVPCKCANHSFCHPSNGTCYCLAGWTGPDCSQPCPPGHWGENCAQTCQCHHGGTCHPQDGSCICPLGWTGHHCLEGCPLGTFGANCSQPCQCGPGEKCHPETGACVCPPGHSGAPCRIGIQEPFTVMPTTPVAYNSL
B1: the Kd worked out at 0.708 ± 0.003 nM.

B2: PEAR1 D343N (receptor, human, UniProt Q5VY43 21-755, looked up)
chain: LNPSDPNTCSFWESFTTTTKESHSRPFSLLPSEPCERPWEGPHTCPQPTVVYRTVYRQVVKTDHRQRLQCCHGFYESRGFCVPLCAQECVHGRCVAPNQCQCVPGWRGDDCSSECAPGMWGPQCDKPCSCGNNSSCDPKSGVCSCPSGLQPPNCLQPCTPGYYGPACQFRCQCHGAPCDPQTGACFCPAERTGPSCDVSCSQGTSGFFCPSTHSCQNGGVFQTPQGSCSCPPGWMGTICSLPCPEGFHGPNCSQECRCHNGGLCDRFTGQCRCAPGYTGDRCREECPVGRFGQDCAETCDCAPDARCFPANGACLCEHGFTGNRCTDRLCPDGFYGLSCQAPCTCDREHSLSCHPMNGECSCLPGWAGLHCNESCPQDTHGPGCQEHCLCLHGGVCQATSGLCQCAPGYTGPHCASLCPPDTYGVNCSARCSCENAIACSPIDGECVCKEGWQRGNCSVPCPPGTWGFSCNASCQCAHEAVCSPQTGACTCTPGWHGAHCQLPCPKGQFGEGCASRCDCDHSDGCDPVHGRCQCQAGWMGARCHLSCPEGLWGVNCSNTCTCKNGGTCLPENGNCVCAPGFRGPSCQRSCQPGRYGKRCVPCKCANHSFCHPSNGTCYCLAGWTGPDCSQPCPPGHWGENCAQTCQCHHGGTCHPQDGSCICPLGWTGHHCLEGCPLGTFGANCSQPCQCGPGEKCHPETGACVCPPGHSGAPCRIGIQEPFTVMPTTPVAYNSL
notes: PEAR1 with the natural human missense variant p.D343N (rs147639000) in an EGF-like domain of the ectodomain; the construct is not described; as a soluble analyte it is probably an ectodomain (surmise); also called PEAR1 p.D343N; rs147639000
With B2, the Kd came out at 1.76 ± 0.006 nM.

One may read the Kd as the free concentration of one partner at which half of the binding sites on the other are occupied at equilibrium, for simple one-to-one binding.
